Measurements published in paper doi:10.1101/2022.02.16.480668 (bioRxiv, 2022).

Target: the molecule itself
Assay: negative-stain electron microscopy of filaments on vesicles

B1: Vps60 (natural protein)
chain: MNRIFGYGNKKSHDQLLQESNQSMNQAQQSLSNRISQLDTQIAQLNFQLQNIQKNLQRSNNKQPSLRKQALKILNKRKQLENMKDSLDSQSWSMTQAQLTNDNLQNTMITINALKQTNNAMKAQYGKINIDKLQDMQDEMLDLIEQGDELQEVLAMNNNSGELDDISDAELDAELDALAQEDFTLPTSENSLGNDMPSYLLGANAPPAFIDEEPNLDTEDKNKALESAQ
modifications: Atto-565 (TFP ester labelling) where fluorescence was read; labeled protein mixed 1:1 with unlabeled protein
B1: binds.
